Experimental findings from patent US5496831 are described below.

The target of the data set is E2F-1 (UniProt Q01094). In words: cell_activity. The note with it: CHO cells, -T antigen; CAT/bGAL 5.2 vs 2.6.
E2F-1, sequence (Q01094 whole entry): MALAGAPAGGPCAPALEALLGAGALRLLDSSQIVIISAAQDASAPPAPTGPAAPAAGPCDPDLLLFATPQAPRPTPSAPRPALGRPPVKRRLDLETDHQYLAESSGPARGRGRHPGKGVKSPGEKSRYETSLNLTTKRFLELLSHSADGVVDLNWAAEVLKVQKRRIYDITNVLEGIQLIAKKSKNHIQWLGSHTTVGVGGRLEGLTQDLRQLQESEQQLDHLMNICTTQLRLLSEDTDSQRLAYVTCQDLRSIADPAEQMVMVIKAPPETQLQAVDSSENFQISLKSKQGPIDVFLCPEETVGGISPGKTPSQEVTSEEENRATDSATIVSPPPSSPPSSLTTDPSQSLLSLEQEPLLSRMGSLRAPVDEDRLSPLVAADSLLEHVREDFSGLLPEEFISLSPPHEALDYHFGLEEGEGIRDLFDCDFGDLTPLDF

For the substance HGAPDH promoter (-487 to +21)-CAT, the activity was 2 fold.
